Data on 17 molecules can be found in US20210380703A1 (RIGEL PHARMACEUTICALS, published 2021).

For assay [1], the target named is T1, biotinylated goat anti-human kappa light chain.
T1 construct: positive control of the ELISA
Description: ELISA, positive control. In a few lines: (§1)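 ELISA measured binding of ACVR2A-specific monoclonal antibodies to human and mouse ACVR2A. Biotinylated goat anti-human kappa light chain served as positive control and human Fc as negative control.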
A general note: An ELISA detects its analyte on a solid surface through an enzyme-linked reagent.

Another assay has as its target mouse ACVR2A (mouse, UniProt P27038 20-135, limits assumed). Kind of assay: ELISA. In a few lines:
as §1

The target of a further assay is T2, human ACVR2A (human, UniProt P27037 20-135, limits assumed).
T2 construct: also called activin receptor, type II A
T2 sequence (P27037 20-135 limits assumed): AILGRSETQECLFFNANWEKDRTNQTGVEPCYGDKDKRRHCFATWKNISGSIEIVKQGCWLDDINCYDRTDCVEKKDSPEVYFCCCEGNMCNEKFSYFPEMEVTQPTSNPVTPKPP
Kind of assay: ELISA. In a few lines: as §1
Note: test concentration or dose not given here.

mouse ACVR2A, sequence (P27038 20-135 limits assumed): as the sequence (P27037 20-135 limits assumed) above, with K20R, V73I counted along it

B1: 375_D02 (antibody, V domains shown)
VH: EVQLLESGGGLVQPGGSLRLSCAASGFTFSSYSMNWVRQAPGKGLEWVSNINYNGGYTSYADSVKGRFTISRDNSKNTLYLQMNSLRAEDTAVYYCARAATWHDTHLDYWGQGTLVTVSS
VL: DIQMTQSPSSLSASVGDRVTITCRASQSILTYLNWYQQKPGKAPKLLIYAASSLQSGVPSRFSGSGSGTDFTLTISSLQPEDFATYYCQQSYELPLTFGGGTKVEIK
notes: Group II
With B1, the values for the optical density (in assay [1]; with mouse ACVR2A; with human ACVR2A) were 3.2 OD, 3.56 OD and 3.63 OD, respectively.

B2: 375_A04 (antibody, V domains shown)
VH: EVQLLESGGGLVQPGGSLRLSCAASGFTFDSYGMNWVRQAPGKGLEWVAGINYNGGYKSYADSVKGRFTISRDNSKNTLYLQMNSLRAEDTAVYYCARAANWHDTALDYWGQGTLVTVSS
VL: DIQMTQSPSSLSASVGDRVTITCRASQSILTYLNWYQQKPGKAPKLVIYYVNNLPSGVPSRFSGSGSGTDFTLTISSLQPEDFATYYCQQSYNSPLTFGGGTKVEIK
notes: Group I
In the case of B2, the optical density stood at 3.1 OD in assay [1], 3.73 OD with mouse ACVR2A and 3.72 OD in the assay with human ACVR2A.

B3: 375_A11 (antibody, V domains shown)
VH: EVQLLESGGGLVQPGGSLRLSCAASGFTFSDYGMHWVRQAPGKGLEWVSSINYNSGYKSYADSVKGRFTISRDNSKNTLYLQMNSLRAEDTAVYYCARAANWHDTALDYWGQGTLVTVSS
VL: DIQMTQSPSSLSASVGDRVTITCRASQSIVSYLNWYQQKPGKAPKLLIYYVTNLASGVPSRFSGSGSGTDFTLTISSLQPEDFATYYCQQSYDNPLTFGGGTKVEIK
notes: Group I
Regarding B3, the optical density in assay [1] stood at 3.05 OD; with mouse ACVR2A it was 3.7 OD; in the assay with human ACVR2A, 3.73 OD.

B4: 365_E10 (antibody, V domains shown)
VH: EVQLLESGGGLVQPGGSLRLSCAASGFTFDSYSMNWVRQAPGKGLEWVSSINYNSGYKGYADSVKGRFTISRDNSKNTLYLQMNSLRAEDTAVYYCARGANWHDTHLDYWGQGTLVTVSS
VL: not shown
notes: Group III
With B4, the optical density was 3.34 OD in assay [1], 2.05 OD in the assay with mouse ACVR2A and 1.82 OD with human ACVR2A.

B5: 366_B05 (antibody, V domains shown)
VH: EVQLLESGGGLVQPGGSLRLSCAASGFTFSDYSMNWVRQAPGKGLEWVSGINYNSGYKSYADSVKGRFTISRDNSKNTLYLQMNSLRAEDTAVYYCARGANWHDTALDYWGQGTLVTVSS
VL: DIQMTQSPSSLSASVGDRVTITCRASQSISSYLNWYQQKPGKAPKLVIYAVTSRASGVPSRFSGSGSGTDFTLTISSLQPEDFATYYCQQSYELPLTFGGGTKVEIK
notes: Group III
Take B5: the results for the optical density (in assay [1]; with mouse ACVR2A; in the assay with human ACVR2A) were 2.96 OD, 2.46 OD and 2.38 OD, respectively.

B6: 366_A06 (antibody, V domains shown)
VH: EVQLLESGGGLVQPGGSLRLSCAASGFTFSDYSMNWVRQAPGKGLEWVASINYNGGYKSYADSVKGRFTISRDNSKNTLYLQMNSLRAEDTAVYYCARGANWHDTHLDYWGQGTLVTVSS
VL: not shown
notes: Group III
Regarding B6, the optical density turned out to be 3.24 OD in assay [1], 2.25 OD with mouse ACVR2A and 1.97 OD with human ACVR2A.

B7: 371_D07 (antibody, V domains shown)
VH: EVQLLESGGGLVQPGGSLRLSCAASGFTFDDYGMNWVRQAPGKGLEWVANINYNGGYKGYADSVKGRFTISRDNSKNTLYLQMNSLRAEDTAVYYCARAANWHDTHLDYWGQGTLVTVSS
VL: DIQMTQSPSSLSASVGDRVTITCRASQSILTYLNWYQQKPGKAPKLVIYAATSRASGVPSRFSGSGSGTDFTLTISSLQPEDFATYYCQQSYELPLTFGGGTKVEIK
notes: Group I
For B7, the results for the optical density (in assay [1]; with mouse ACVR2A; in the assay with human ACVR2A) were 3.59 OD, 2.9 OD and 2.66 OD, respectively.

B8: 366_A08 (antibody, V domains shown)
VH: EVQLLESGGGLVQPGGSLRLSCAASGFTFDDYSMNWVRQAPGKGLEWVSGINYNSGYKGYADSVKGRFTISRDNSKNTLYLQMNSLRAEDTAVYYCARGANWHDTHLDYWGQGTLVTVSS
VL: DIQMTQSPSSLSASVGDRVTITCRASQSIVSYVNWYQQKPGKAPKLVIYAATSRASGVPSRFSGSGSGTDFTLTISSLQPEDFATYYCQQSYNSPLTFGGGTKVEIK
notes: Group III
For the molecule B8, the values for the optical density (in assay [1]; in the assay with mouse ACVR2A; in the assay with human ACVR2A) were 3.23 OD, 1.73 OD and 1.65 OD, respectively.

B9: 376_D08 (antibody, V domains shown)
VH: EVQLLESGGGLVQPGGSLRLSCAASGFTFDSYGMNWVRQAPGKGLEWVANINYNSGYKSYADSVKGRFTISRDNSKNTLYLQMNSLRAEDTAVYYCARAATWHDTALDYWGQGTLVTVSS
VL: DIQMTQSPSSLSASVGDRVTITCRASQSILTYLNWYQQKPGKAPKLVIYYANNRPSGVPSRFSGSGSGTDFTLTISSLQPEDFATYYCQQSYSNPLTFGGGTKVEIK
notes: Group II
In the case of B9, the optical density in assay [1] was determined as 3.47 OD; with mouse ACVR2A, 3.71 OD; with human ACVR2A, 3.81 OD.

B10: 365_B10 (antibody, V domains shown)
VH: EVQLLESGGGLVQPGGSLRLSCAASGFTFDDYSMHWVRQAPGKGLEWVASINYNSGYKGYADSVKGRFTISRDNSKNTLYLQMNSLRAEDTAVYYCARAANWHDTALDYWGQGTLVTVSS
VL: DIQMTQSPSSLSASVGDRVTITCRASQSILRYLNWYQQKPGKAPKLLIYAATSRASGVPSRFSGSGSGTDFTLTISSLQPEDFATYYCQQSDNLPLTFGGGTKVEIK
notes: Group I
As for B10, the optical density in assay [1] stood at 3.21 OD; with mouse ACVR2A it was 2.78 OD; in the assay with human ACVR2A it was 2.82 OD.

B11: 376_G02 (antibody, V domains shown)
VH: EVQLLESGGGLVQPGGSLRLSCAASGFTFSDYGMNWVRQAPGKGLEWVSGINYNGGYTSYADSVKGRFTISRDNSKNTLYLQMNSLRAEDTAVYYCARAANWHDTALDYWGQGTLVTVSS
VL: DIQMTQSPSSLSASVGDRVTITCRASQSISRYLNWYQQKPGKAPKLVIYAATSLASGVPSRFSGSGSGTDFTLTISSLQPEDFATYYCQQSYDNPLTFGGGTKVEIK
notes: Group I
Turning to B11, the optical density came out at 3.55 OD in assay [1], 3.7 OD with mouse ACVR2A and 3.69 OD with human ACVR2A.

B12: 375_F12 (antibody, V domains shown)
VH: EVQLLESGGGLVQPGGSLRLSCAASGFTFDSYGMHWVRQAPGKGLEWVASINYNGGYTSYADSVKGRFTISRDNSKNTLYLQMNSLRAEDTAVYYCARAANWHDTALDYWGQGTLVTVSS
VL: DIQMTQSPSSLSASVGDRVTITCRASQSILTYLNWYQQKPGKAPKLVIYAATSRASGVPSRFSGSGSGTDFTLTISSLQPEDFATYYCQQSDELPLTFGGGTKVEIK
notes: Group I
On to B12, for which the optical density in assay [1] was determined as 3.17 OD; with mouse ACVR2A, 3.14 OD; in the assay with human ACVR2A, 2.95 OD.

B13: 375_G08 (antibody, V domains shown)
VH: EVQLLESGGGLVQPGGSLRLSCAASGFTFSSYGMHWVRQAPGKGLEWVSGINYNGGYTSYADSVKGRFTISRDNSKNTLYLQMNSLRAEDTAVYYCARAATWHDTHLDYWGQGTLVTVSS
VL: DIQMTQSPSSLSASVGDRVTITCRASQSISSYVNWYQQKPGKAPKLLIYAVTSRASGVPSRFSGSGSGTDFTLTISSLQPEDFATYYCQQSYSTPLTFGGGTKVEIK
notes: Group II
Turning to B13, the optical density in assay [1] was 3.27 OD; with mouse ACVR2A, 3.43 OD; with human ACVR2A, 3.33 OD.

B14: 375_H04 (antibody, V domains shown)
VH: EVQLLESGGGLVQPGGSLRLSCAASGFTFSSYGMHWVRQAPGKGLEWVAGINYNSGYTGYADSVKGRFTISRDNSKNTLYLQMNSLRAEDTAVYYCARAATWHDTHLDYWGQGTLVTVSS
VL: DIQMTQSPSSLSASVGDRVTITCRASQSILSYLNWYQQKPGKAPKLVIYAATSRASGVPSRFSGSGSGTDFTLTISSLQPEDFATYYCQQSYSNPLTFGGGTKVEIK
notes: Group II
On to B14, for which the figures for the optical density (in assay [1]; with mouse ACVR2A; with human ACVR2A) were 3.15 OD, 3.16 OD and 3.11 OD, respectively.

B15: 376_H12 (antibody, V domains shown)
VH: EVQLLESGGGLVQPGGSLRLSCAASGFTFSDYGMHWVRQAPGKGLEWVASINYNGGYTSYADSVKGRFTISRDNSKNTLYLQMNSLRAEDTAVYYCARAATWHDTHLDYWGQGTLVTVSS
VL: DIQMTQSPSSLSASVGDRVTITCRASQSIITYLNWYQQKPGKAPKLVIYAATSRASGVPSRFSGSGSGTDFTLTISSLQPEDFATYYCQQSYESPLTFGGGTKVEIK
notes: Group II
With B15, the optical density in assay [1] is 3.49 OD; in the assay with mouse ACVR2A it was 3.08 OD; in the assay with human ACVR2A, 3.23 OD.

B16: 376_F09 (antibody, V domains shown)
VH: EVQLLESGGGLVQPGGSLRLSCAASGFTFDSYSMHWVRQAPGKGLEWVSSINYNGGYKSYADSVKGRFTISRDNSKNTLYLQMNSLRAEDTAVYYCARAATWHDTHLDYWGQGTLVTVSS
VL: DIQMTQSPSSLSASVGDRVTITCRASQSILTYVNWYQQKPGKAPKLLIYAVTSRASGVPSRFSGSGSGTDFTLTISSLQPEDFATYYCQQSYDTPLTFGGGTKVEIK
notes: Group II
Consider B16, for which the optical density amounted to 3.35 OD in assay [1], 3.59 OD with mouse ACVR2A and 3.5 OD with human ACVR2A.

B17: 375_H01 (antibody, V domains shown)
VH: EVQLLESGGGLVQPGGSLRLSCAASGFTFSDYSMNWVRQAPGKGLEWVAGINYNSGYTSYADSVKGRFTISRDNSKNTLYLQMNSLRAEDTAVYYCARAANWHDTHLDYWGQGTLVTVSS
VL: DIQMTQSPSSLSASVGDRVTITCRASQSILTYLNWYQQKPGKAPKLLIYAATSRHSGVPSRFSGSGSGTDFTLTISSLQPEDFATYYCQQSYSNPLTFGGGTKVEIK
notes: Group I
For B17, the optical density in assay [1] was 3.1 OD; with mouse ACVR2A, 3.06 OD; with human ACVR2A, 2.79 OD.
